Measurements reported in patent publication US20240417446A1 (US Dept. of Health and Human Services, published 2024).

How the values were obtained:
[1] = target: T1, SARS-CoV-2 spike trimer (40589-V08H4) (SARS-CoV-2, UniProt P0DTC2 14-1213); assay: ELISA, A450, nanobody at 10ug/mL, Spike Trimer coated at 2 ug/mL
T1 construct: extracellular domain

[2] = target: SARS-CoV-2 Gamma variant spike protein on pseudovirus (SARS-CoV-2, UniProt P0DTC2 14-1273); assay: cell-based or functional assay
[3] = target: SARS-CoV-2 Omicron BA.4/BA.5 variant spike protein on pseudovirus (SARS-CoV-2); assay: cell-based or functional assay
[4] = target: SARS-CoV-2 Omicron BA.1 variant spike protein on pseudovirus (SARS-CoV-2); assay: cell-based or functional assay
[5] = target: SARS-CoV-2 Alpha variant spike protein on pseudovirus (SARS-CoV-2, UniProt P0DTC2 14-1273); assay: cell-based or functional assay
[6] = target: SARS-CoV-2 Omicron BA.2 variant spike protein on pseudovirus (SARS-CoV-2); assay: cell-based or functional assay
[7] = target: SARS-CoV-2 Lambda variant spike protein on pseudovirus (SARS-CoV-2, UniProt P0DTC2 14-1273); assay: cell-based or functional assay

Row | Binder | ELISA (A450) at 10ug/mL [1] | also measured
1 | NCI-CoV-CGF10 (VHH) VHH: AVQLVESGGGLVQPGGSLRLSCAASGFTFSSYGMHWVRQAPGKGLERVAGINWDGSNSYYTETVKGRFTISRDNAKNTAYLQMNSLKPEDTAMYYCRTLILDSDCDPGSTYRYAWGQGTQVTVSS | 1.2 | –
2 | NCI-CoV-CL3H4 (VHH) VHH: DVQLVESGGGAVKPGGSLTLTCTVQEGSRNCVGWFRQGSGKDRQAVAMINGNGGTTNYDDRVKGRFQISRDGSLVHLRMNDVKLGDTDIYYCRQGQTYDCWGGTWTDSGWGQGTQVTVSS | 0.3 | –
3 | NCI-CoV-S2G8 (VNAR) VNAR: ARVDQTPQTITKETGESLTINCVLRDSNCPLSNTYWYRKKSGSTNEESISKGGRYVETVNSGSKSFSLRINDLTVEDSGTYRCKVRTHWSICWEMGLEPNYDVYGGGTVVTVN | 0.61 | –
4 | NCI-CoV-S2A9 (VNAR) VNAR: ARVDQTPRSVTKETGESLTINCVLRDASYALGRTCWYRKKSGSTNEESISKGGRYVETVNSGSKSFSLRINDLTVEDGGTYRCGVSTPWSCDYGPLCFYAACGDGTVVTVN | 0.53 | IC50 for neutralizing pseudovirus [2]: 1800 nM; IC50 for neutralizing pseudovirus [3]: 3730 nM; IC50 for neutralizing pseudovirus [4]: 2250 nM; IC50 for neutralizing pseudovirus [5]: 1820 nM; IC50 for neutralizing pseudovirus [6]: 2250 nM; IC50 for neutralizing pseudovirus [7]: 4570 nM
5 | NCI-CoV-CLA2 (VHH) VHH: QVQLVESGGGSVQPGGSLRLSCAVSGYTSSSYCFGWFRQAPGKDREGIIAMEPGNTYTAGAVKGRFTISRDNAKNMVYLQMNSLKPDDTAMYYCAASPYPGTWLNPDLFDTWGQGTQVTVSS | 0.66 | –
6 | NCI-CoV-S3A10 (VNAR) VNAR: ARVDQTPRSVTKETGESLTINCVLRDASYALGSTCWYRKKSGSTNEESISKGGRYVETVNSGSKSFSLRINDLTVEDGGTYRCGRIQNTKAVLLPCVYAACGDGTVVTVN | 1.34 | –
7 | NCI-CoV-S4A9 (VNAR) VNAR: ARVDQTPRSVTKETGESLTINCVLRDASYALGSTCWYRKKSGSTNEESISKGGRYVETVNSGSKSFSLRINDLTVEDGGTYRCGVQSRWGAVPKLCSNYAACGDGTAVTVN | 1.43 | –
8 | NCI-CoV-CG2G2 (VHH) VHH: AVQLVESGGGSVPPGGSLTLSCTVSDNIFRTYAVGWFRQAPEKRCQWIATLNADESTEYNVAVTGRFTISRDNSGRSVYLQMDNLNSEDTAIYYCASLARKWSCHDSWGRGTQVTVSS | 2.7 | –
9 | NCI-CoV-CGH3 (VHH) VHH: AVQLVESGGGLVQPGGSLRLSCAASGFTFSSYAMGWVRQAPGKGLEWISAINSGGDIRYYADSVKGRFTISRDNAKNTLYLQMNSLKPEDTAVYYCATDDEILSYGLGTSFDYWGQGTQVTVSS | 0.14 | –
